Patent publication US20230123041A1 (IMMUNOME, published 2023)

Tests used:
[1] = molecular target: T1, human ROR-1 endogenously expressed on JeKo-1 and MDA-MB-468 cells (human, UniProt Q01973 30-937); experiment: cellular binning by flow cytometry on MDA-MB-468 cells; antibody titrated, stained with labelled secondary antibody, % Top MFI [29D middle panel]
T1 construct: whole, on cells; also called ROR-1 receptor; receptor tyrosine kinase like orphan receptor 1
Description: (§1) Next, the anti-ROR-1 antibodies were fluorescently labeled with a secondary antibody.
(§2) In Step 2, a fluorescently labeled secondary antibody recognizing the novel antibodies was incubated with the samples.

[2] = molecular target: T1, human ROR-1 endogenously expressed on …; experiment: cellular binning by flow cytometry on MDA-MB-468 cells; antibody titrated, stained with labelled secondary antibody, % Top MFI [29C middle panel]
Description: as §1, §2

[3] = molecular target: T1, human ROR-1 endogenously expressed on …; experiment: cellular binning by flow cytometry on MDA-MB-468 cells; ATX-P-885 titrated first, then a saturating dose of the competitor Dy650-UC961; partial inhibition [29C middle panel]
Description: as §1, §2

[4] = molecular target: T1, human ROR-1 endogenously expressed on …; experiment: flow cytometry, antibody titration on ROR-1 positive JeKo-1 cells, secondary antibody staining, Net MFI [right panel]
From the text: FIG. 27 illustrates a measurement of cell binding saturation data for the anti-ROR-1 antibodies generated by the methods described herein. […] Cells were washed, stained with secondary antibody and cell binding saturation was detected by flow cytometry and reported as mean fluorescent intensity (MFI).
A cell binding saturation assay was developed to evaluate how well the anti_ROR-1 antibodies developed in Example 28 bound to endogenously expressed extracellular ROR-1 protein on cell lines. […] Briefly, two ROR-1 positive cell lines, JeKo-1 and MDA-MB-468, were incubated in a titration series concentration of each antibody construct. Cells were then washed and subjected to secondary antibody staining and detection by flow cytometry. Mean fluorescence (MFI) was determined by analysis on cytometer software. […] (See FIG. 27).

Hu/Cy/Rh ROR1 - His [5] = molecular target: T2, Hu/Cy/Rh ROR1 - His (human/cynomolgus/rhesus (Hu/Cy/Rh), UniProt Q01973 30-403, limits assumed); experiment: SPR (Carterra); cell 'Kinetics (KD)' of 4A5 in the row and the column heads of the binning table; no unit is printed on the sheet, the four other KD cells equal the KD (M) values of Table 2 for Hu/Cy/Rh ROR1 - His
T2 construct: Purified His-tagged protein; also called human/cyno/rhesus ROR-1; not shown: His tag

[6] = molecular target: T1, human ROR-1 endogenously expressed on …; experiment: flow cytometry, antibody titration on ROR-1 positive JeKo-1 cells, secondary antibody staining, Net MFI [left panel]
Hu/Cy/Rh ROR1 - His [7] = molecular target: T2, Hu/Cy/Rh ROR1 - His; experiment: SPR, binding to purified His-tagged protein
[8] = molecular target: T1, human ROR-1 endogenously expressed on …; experiment: cell-based or functional assay
[9] = molecular target: T1, human ROR-1 endogenously expressed on …; experiment: cellular binning by flow cytometry on MDA-MB-468 cells; ATX-P-875 titrated first, then a saturating dose of the competitor 4A5-PE [29D left panel]
Description: as §1, §2

[10] = molecular target: T1, human ROR-1 endogenously expressed on …; experiment: cellular binning by flow cytometry on MDA-MB-468 cells; antibody titrated, stained with labelled secondary antibody, % Top MFI [29C left panel]
Description: as §1, §2

[11] = molecular target: T1, human ROR-1 endogenously expressed on …; experiment: cellular binning by flow cytometry on MDA-MB-468 cells; antibody titrated, stained with labelled secondary antibody, % Top MFI [29D left panel]
Description: as §1, §2

B1: ATX-P-885 (antibody, human IgG1, kappa, V domains shown)
VH: QVQLQQWGAGLLKPSETLSLTCAVYGGSFSGYYWSWIRQPPGKGLEWIGEINHSGSTNYNPSLKSRVTISVDTSKNQFSLKLSSVTAADTAVYYCAREGVYEDYWGQGTLVTVSS
VL: EIVLTQSPATLSLSPGERATLSCRASQSVSNYLAWYQQKPGQAPRLLIYDAYNRATGIPARFSGSGSGTDFTLTISSLEPEDFAVYYCQQRSNWPLTFGQGTRLEIKR
notes: also called mAb B
In the case of B1, the “EC50 (read off the curve)” value [1] is reported as ~2000 pM, the “EC50 (read off the curve)” value [2] is reported as ~3000 pM and the “IC50 (read off the curve)” value [3] is reported as ~3000 pM. For the same binder, the “EC50 (read off the curve)” value [4] was ~300 pM.

B2: 4A5 (antibody, V domains shown)
VH: EVKLVESGGGLVKPGGSLKLSCAASGFTFSSYAMSWVRQIPEKRLEWVASISRGGTTYYPDSVKGRFTISRDNVRNILYLQMSSLRSEDTAMYYCGRYDYDGYYAMDYWGQGTSVTVSS
VL: DIKMTQSPSSMYASLGERVTITCKASPDINSYLSWFQQKPGKSPKTLIYRANRLVDGVPSRFSGGGSGQDYSLTINSLEYEDMGIYYCLQYDEFPYTFGGGTKLEMK
For B2, the Kd (Hu/Cy/Rh ROR1 - His [5]) was 2810 pM.

B3: UC961 (ATX-P-453) (antibody, V domains shown)
VH: QVQLQESGPGLVKPSQTLSLTCTVSGYAFTAYNIHWVRQAPGQGLEWMGSFDPYDGGSSYNQKFKDRLTISKDTSKNQVVLTMTNMDPVDTATYYCARGWYYFDYWGHGTLVTVSS
VL: DIVMTQTPLSLPVTPGEPASISCRASKSISKYLAWYQQKPGQAPRLLIYSGSTLQSGIPPRFSGSGYGTDFTLTINNIESEDAAYYFCQQHDESPYTFGEGTKVEIK
For B3, the “EC50 (read off the curve)” value [6] was ~20 pM, the Kd (Hu/Cy/Rh ROR1 - His [7]) was 4690 pM and the koff (Hu/Cy/Rh ROR1 - His [7]) was 0.00591 s⁻¹. The kon (Hu/Cy/Rh ROR1 - His [7]) was 1.26e+06 M⁻¹ s⁻¹, the “EC50 (read off the curve)” value [4] was ~100 pM and the “percent receptor internalization relative to time zero (flow cytometry of antibody remaining on the surface, JeKo-1 and MDA-MB-468)” value [8] was ≥ 75%.

B4: ATX-P-875 (antibody, human IgG1, kappa, V domains shown)
VH: not shown
VL: DIQMTQSPSSLSASVGDRVTITCRASQSISSYLNWYQQKPGKAPKLLIYAASSLQSGVPSRFSGSGSGTDFTLTISSLQPEDFATYYCQQYDNLPITFGQGTRLEIKR
notes: also called mAb A
In the case of B4, the “IC50 (read off the curve)” value [9] is reported as ~700 pM, the “EC50 (read off the curve)” value [10] is reported as ~900 pM and the “EC50 (read off the curve)” value [11] is reported as ~600 pM.
